± gives the uncertainty stated by the source.
B1: Formin-binding protein 4, residues 200 to 261; numbered along this chain, Q8N3X1 (parent)
chain: SGWQYDTQCSLAGVGIEMGDWQEVWDENTGCYYYWNTQTNEVTWELPQYLATQVQGLQHYQP

Variants of: B1
Assay: abundance fitness (aPCA) (normalised: wild type 0, dead -1); higher = more abundant; growth selection in yeast, the domain comes from the species named
Settings: Homo sapiens
SGWQYDTQCSLAGVGIEMGDWQEVWDENTGCYYYWNTQTNEVTWYLPQYLATQVQGLQHYQP [E45Y] showed an abundance fitness of -0.484 ± 0.16. Work on SGWQYDTQCSLAGVGIEMGDWQEVWDENTGCYYYWNTQTNEVTWTLPQYLATQVQGLQHYQP [E45T] yielded an abundance fitness of -0.076 ± 0.12. With SGWQYDTQCSLAGVGIEMGDWQEVWDENTGCYYYWNTQTNEVTWFLPQYLATQVQGLQHYQP [E45F] the abundance fitness was -0.398 ± 0.14. Work on SGWQYDTQCSLAGVGIEMGDWQEVWDENTGCYYYWNTQTNEVTWDLPQYLATQVQGLQHYQP [E45D] yielded an abundance fitness of -0.149 ± 0.12. SGWQYDTQCSLAGVGIEMGDWQEVWDENTGCYYYWNTQTNEVTWKLPQYLATQVQGLQHYQP [E45K] showed an abundance fitness of -0.069 ± 0.15. For SGWQYDTQCSLAGVGIEMGDWQEVWDENTGCYYYWNTQTNEVTWNLPQYLATQVQGLQHYQP [E45N], the abundance fitness was -0.282 ± 0.14. With SGWQYDTQCSLAGVGIEMGDWQEVWDENTGCYYYWNTQTNEVTWPLPQYLATQVQGLQHYQP [E45P] the abundance fitness was -0.552 ± 0.15. Work on SGWQYDTQCSLAGVGIEMGDWQEVWDENTGCYYYWNTQTNEVTWRLPQYLATQVQGLQHYQP [E45R] yielded an abundance fitness of -0.165 ± 0.074. Work on SGWQYDTQCSLAGVGIEMGDWQEVWDENTGCYYYWNTQTNEVTWILPQYLATQVQGLQHYQP [E45I] yielded an abundance fitness of -0.089 ± 0.13. In the case of SGWQYDTQCSLAGVGIEMGDWQEVWDENTGCYYYWNTQTNEVTWWLPQYLATQVQGLQHYQP [E45W], the abundance fitness is reported as -0.598 ± 0.13. For SGWQYDTQCSLAGVGIEMGDWQEVWDENTGCYYYWNTQTNEVTWHLPQYLATQVQGLQHYQP [E45H], the abundance fitness was -0.338 ± 0.16. In the case of SGWQYDTQCSLAGVGIEMGDWQEVWDENTGCYYYWNTQTNEVTWALPQYLATQVQGLQHYQP [E45A], the abundance fitness is reported as -0.213 ± 0.095. Variant SGWQYDTQCSLAGVGIEMGDWQEVWDENTGCYYYWNTQTNEVTWVLPQYLATQVQGLQHYQP [E45V] has an abundance fitness of -0.294 ± 0.084. For SGWQYDTQCSLAGVGIEMGDWQEVWDENTGCYYYWNTQTNEVTWQLPQYLATQVQGLQHYQP [E45Q], the abundance fitness was 0.05 ± 0.16. For SGWQYDTQCSLAGVGIEMGDWQEVWDENTGCYYYWNTQTNEVTWMLPQYLATQVQGLQHYQP [E45M], the abundance fitness was -0.325 ± 0.14. For SGWQYDTQCSLAGVGIEMGDWQEVWDENTGCYYYWNTQTNEVTWGLPQYLATQVQGLQHYQP [E45G], the abundance fitness was -0.321 ± 0.082. For SGWQYDTQCSLAGVGIEMGDWQEVWDENTGCYYYWNTQTNEVTWLLPQYLATQVQGLQHYQP [E45L], the abundance fitness was -0.21 ± 0.069. Work on SGWQYDTQCSLAGVGIEMGDWQEVWDENTGCYYYWNTQTNEVTWELYQYLATQVQGLQHYQP [P47Y] yielded an abundance fitness of -1.11 ± 0.27. Work on SGWQYDTQCSLAGVGIEMGDWQEVWDENTGCYYYWNTQTNEVTWELQQYLATQVQGLQHYQP [P47Q] yielded an abundance fitness of -1.23 ± 0.33. SGWQYDTQCSLAGVGIEMGDWQEVWDENTGCYYYWNTQTNEVTWELFQYLATQVQGLQHYQP [P47F] gave an abundance fitness of -1.1 ± 0.24. SGWQYDTQCSLAGVGIEMGDWQEVWDENTGCYYYWNTQTNEVTWELWQYLATQVQGLQHYQP [P47W] showed an abundance fitness of -1.12 ± 0.2. Work on SGWQYDTQCSLAGVGIEMGDWQEVWDENTGCYYYWNTQTNEVTWELCQYLATQVQGLQHYQP [P47C] yielded an abundance fitness of -1.22 ± 0.32. Variant SGWQYDTQCSLAGVGIEMGDWQEVWDENTGCYYYWNTQTNEVTWELMQYLATQVQGLQHYQP [P47M] has an abundance fitness of -0.721 ± 0.13. Variant SGWQYDTQCSLAGVGIEMGDWQEVWDENTGCYYYWNTQTNEVTWELTQYLATQVQGLQHYQP [P47T] has an abundance fitness of -1.01 ± 0.19. SGWQYDTQCSLAGVGIEMGDWQEVWDENTGCYYYWNTQTNEVTWELHQYLATQVQGLQHYQP [P47H] gave an abundance fitness of -1 ± 0.29. With SGWQYDTQCSLAGVGIEMGDWQEVWDENTGCYYYWNTQTNEVTWELRQYLATQVQGLQHYQP [P47R] the abundance fitness was -0.895 ± 0.11. Work on SGWQYDTQCSLAGVGIEMGDWQEVWDENTGCYYYWNTQTNEVTWELIQYLATQVQGLQHYQP [P47I] yielded an abundance fitness of -1.02 ± 0.23. Variant SGWQYDTQCSLAGVGIEMGDWQEVWDENTGCYYYWNTQTNEVTWELKQYLATQVQGLQHYQP [P47K] has an abundance fitness of -0.274 ± 0.17. In the case of SGWQYDTQCSLAGVGIEMGDWQEVWDENTGCYYYWNTQTNEVTWELDQYLATQVQGLQHYQP [P47D], the abundance fitness is reported as -1.17 ± 0.28. SGWQYDTQCSLAGVGIEMGDWQEVWDENTGCYYYWNTQTNEVTWELVQYLATQVQGLQHYQP [P47V] gave an abundance fitness of -0.583 ± 0.11. SGWQYDTQCSLAGVGIEMGDWQEVWDENTGCYYYWNTQTNEVTWELGQYLATQVQGLQHYQP [P47G] showed an abundance fitness of -1.04 ± 0.15. Work on SGWQYDTQCSLAGVGIEMGDWQEVWDENTGCYYYWNTQTNEVTWELEQYLATQVQGLQHYQP [P47E] yielded an abundance fitness of -0.985 ± 0.22. SGWQYDTQCSLAGVGIEMGDWQEVWDENTGCYYYWNTQTNEVTWELAQYLATQVQGLQHYQP [P47A] gave an abundance fitness of -0.842 ± 0.15. SGWQYDTQCSLAGVGIEMGDWQEVWDENTGCYYYWNTQTNEVTWELSQYLATQVQGLQHYQP [P47S] gave an abundance fitness of -0.95 ± 0.13. Work on SGWQYDTQCSLAGVGIEMGDWQEVWDENTGCYYYWNTQTNEVTHELPQYLATQVQGLQHYQP [W44H] yielded an abundance fitness of -0.236 ± 0.14. In the case of SGWQYDTQCSLAGVGIEMGDWQEVWDENTGCYYYWNTQTNEVTDELPQYLATQVQGLQHYQP [W44D], the abundance fitness is reported as -0.429 ± 0.15. Work on SGWQYDTQCSLAGVGIEMGDWQEVWDENTGCYYYWNTQTNEVTAELPQYLATQVQGLQHYQP [W44A] yielded an abundance fitness of -0.221 ± 0.083. With SGWQYDTQCSLAGVGIEMGDWQEVWDENTGCYYYWNTQTNEVTRELPQYLATQVQGLQHYQP [W44R] the abundance fitness was 0.03 ± 0.054. Variant SGWQYDTQCSLAGVGIEMGDWQEVWDENTGCYYYWNTQTNEVTQELPQYLATQVQGLQHYQP [W44Q] has an abundance fitness of -0.061 ± 0.076. With SGWQYDTQCSLAGVGIEMGDWQEVWDENTGCYYYWNTQTNEVTSELPQYLATQVQGLQHYQP [W44S] the abundance fitness was -0.037 ± 0.064. Variant SGWQYDTQCSLAGVGIEMGDWQEVWDENTGCYYYWNTQTNEVTLELPQYLATQVQGLQHYQP [W44L] has an abundance fitness of -0.226 ± 0.062. SGWQYDTQCSLAGVGIEMGDWQEVWDENTGCYYYWNTQTNEVTNELPQYLATQVQGLQHYQP [W44N] showed an abundance fitness of 0.068 ± 0.12. Variant SGWQYDTQCSLAGVGIEMGDWQEVWDENTGCYYYWNTQTNEVTYELPQYLATQVQGLQHYQP [W44Y] has an abundance fitness of 0.089 ± 0.14.

— the Human Domainome abundance scans (Beltran et al. 2025)
